Source: patent US20230085439A1

Tests used:
[1] = molecular target: hMPV B2 F (human metapneumovirus)
[2] = molecular target: hMPV B2 F (human metapneumovirus); test: BLI, Fab in solution, His-tagged hMPV B2 F on anti-penta-HIS sensors
[3] = molecular target: hMPV 130-BV (human metapneumovirus); test: BLI, Fab in solution, hMPV 130-BV on anti-penta-HIS sensors
[4] = molecular target: hMPV 130-BV (human metapneumovirus); test: biolayer interferometry, hMPV 130-BV on anti-penta-HIS biosensors; unit inferred

B1: MPV196 Fab (Fab, V domains shown)
VH: QVQLQQWGAGLLKPSETLSLTCAVYGGSFSGYSWTWIRQPPGKGLEWIGEINHSGSTNYNPSLKSRVTISIDTSRNQFSLKLISVTAADTAVYYCARGVRGGYNLWHFDVWGQGTLVTVSS
VL: SYELSQSPSVSVSPGQTARITCSGDKLGNKYASWYQQKPGQSPVLVIYQDDKRPSGIPERFSGSNSGNTATLTIGGTQAMDEADYSCQAWDGRTAVVFGGGTKLTVL
In the case of B1, the Kd [1] is reported as 7.3 nM, the koff [1] is reported as 0.003 s⁻¹ and the kon [1] is reported as 410000 M⁻¹ s⁻¹.

B2: MPV364 Fab (Fab, V domains shown)
VH: QVQLVQSGAEVKKPGASVKVSCKASGYTFTHDSIHWVRQAPGQRLEWMGWINVGNGDTKSSQKFQDRLTITRDTSANTAYMEVRSLKYEDTAMYFCARVDQYCIGGVCYGGKNWFDPWGQGTLVTVSS
VL: SYELNQPPSVSVAPGQTAMITCGGYYVGVKSLHWYQQKAGQAPVLVVHDDSDRPSGIPERFSGSKSGDTATLIISRVEAGDEADYYCQVWDRDSDHPYVFGTGTTVTVL
With B2 the Kd [1] was 70 nM, the koff [1] was 0.0038 s⁻¹ and the kon [1] was 61000 M⁻¹ s⁻¹. For the same binder, the fold KD against MPV196 and MPV314 [2] was 10 fold.

B3: MPV314 Fab (Fab, V domains shown)
VH: QVQLVQSGGGVVQPGRSLRLSCAASGFSFSDYGMDWVRQAPGKGLEWVAVISYDGSNQYYADSVKGRFTVSRDNSKNTVYLQMNSLRAEDTAVYFCAKDESRRYYYSSGIHSHWGQGTLVTVSS
VL: DIVMTQSPATLSVSPGERATLSCRASQSVSRNLAWYQQKPGQAPRLLIFGASTRATGIPARFSGSASGTEFTLTISSLQSEDFAVYYCHQYNYWPPGTFGQGTRLEIK
With B3 the Kd [1] was 4.4 nM, the koff [1] was 0.0027 s⁻¹ and the kon [1] was 630000 M⁻¹ s⁻¹.

B4: MPV458 Fab (Fab, V domains shown)
VH: QGKLVESGGGVIQPGRSLRLSCAASGFDFSRYGLHWVRQAPGKGLEWVAVIVYAGSNKYYADSVKGRFTISKDNSKNTMHLQMSDLRTEDTAVYYCARDQAFDLWGQGTMVTVSS
VL: DIQMTQSPASLSASVGDRVTITCQASQGISRSVNWYQQKPGKAPKLLIFDASHLERGVPSRFSGSGYGTDFTFTISSLQPEDIATYYCQQYDNLRISFGQGTRLEIK
B4 gave a KD difference in logs against 101F Fab [3] of 3 logs and a Kd [4] of 0.075 nM.
